B1: Cullin-3A (Arabidopsis thaliana (Mouse-ear cress)), Q9ZVH4 (parent)
chain: MSNQKKRNFQIEAFKHRVVVDPKYADKTWQILERAIHQIYNQDASGLSFEELYRNAYNMVLHKFGEKLYTGFIATMTSHLKEKSKLIEAAQGGSFLEELNKKWNEHNKALEMIRDILMYMDRTYIESTKKTHVHPMGLNLWRDNVVHFTKIHTRLLNTLLDLVQKERIGEVIDRGLMRNVIKMFMDLGESVYQEDFEKPFLDASSEFYKVESQEFIESCDCGDYLKKSEKRLTEEIERVAHYLDAKSEEKITSVVEKEMIANHMQRLVHMENSGLVNMLLNDKYEDLGRMYNLFRRVTNGLVTVRDVMTSHLREMGKQLVTDPEKSKDPVEFVQRLLDERDKYDKIINTAFGNDKTFQNALNSSFEYFINLNARSPEFISLFVDDKLRKGLKGITDVDVEVILDKVMMLFRYLQEKDVFEKYYKQHLAKRLLSGKTVSDDAERSLIVKLKTECGYQFTSKLEGMFTDMKTSEDTMRGFYGSHPELSEGPTLIVQVLTTGSWPTQPAVPCNLPAEVSVLCEKFRSYYLGTHTGRRLSWQTNMGTADIKAIFGKGQKHELNVSTFQMCVLMLFNNSDRLSYKEIEQATEIPAADLKRCLQSLACVKGKNVIKKEPMSKDIGEEDLFVVNDKFTSKFYKVKIGTVVAQKETEPEKQETRQRVEEDRKPQIEAAIVRIMKSRKILDHNNIIAEVTKQLQPRFLANPTEIKKRIESLIERDFLERDSTDRKLYRYLA
partner: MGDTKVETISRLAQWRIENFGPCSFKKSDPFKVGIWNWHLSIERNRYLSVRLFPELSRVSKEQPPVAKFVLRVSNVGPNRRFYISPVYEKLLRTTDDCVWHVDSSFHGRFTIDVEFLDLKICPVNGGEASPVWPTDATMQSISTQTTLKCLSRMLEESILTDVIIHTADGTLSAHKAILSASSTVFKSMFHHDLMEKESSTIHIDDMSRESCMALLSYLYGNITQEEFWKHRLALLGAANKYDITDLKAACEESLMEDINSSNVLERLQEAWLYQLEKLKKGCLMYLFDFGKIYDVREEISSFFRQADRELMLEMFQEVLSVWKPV
B2: BTB/POZ domain-containing protein At1g21780 (Arabidopsis thaliana (Mouse-ear cress)), Q9XHZ8 (parent)
chain: B1 partner
partner: B1 chain

Variants of: B1
Conditions: with y1178, Q9XHZ8

Variant	effect of a mutation on the interaction
F49A	decreasing interaction
S48A	decreasing interaction

Variants of: B2
Conditions: with cul3a_arath CUL3A, Q9ZVH4

Variant	effect of a mutation on the interaction
I204R	decreasing interaction
Y242A	decreasing interaction
